What was measured:
[1] = viscosimetry; falling-ball micro-viscometer, 20 °C; Tpm 2 mg/mL in 30 mM Hepes-Na pH 7.3, 100 mM NaCl, 4 mM DTT; viscosity over buffer viscosity; end-to-end interaction of adjacent Tpm molecules; settings: other: viscosimetry
[2] = biological target: filamentous actin (F-actin) from rabbit m. psoas (rabbit) (UniProt P68135); assay: co-sedimentation; 10 µM F-actin with 0.5 to 7.5 µM Tpm in 30 mM Hepes-Na pH 7.3, 200 mM NaCl; 40 min at 25 °C, then 40 min at 100,000 g at 4 °C; supernatants and pellets by SDS-PAGE; apparent affinity (K50%: Tpm concentration at which half of the actin is saturated)
[3] = biological target: filamentous actin (F-actin) from rabbit m. psoas (rabbit) (UniProt P68135); assay: temperature dependence of light scattering; thermally induced dissociation of Tpm from phalloidin-stabilized F-actin; 20 µM F-actin, 10.5 µM Tpm, 30 mM Hepes-Na pH 7.3, 100 mM NaCl; light scattering at 90°, 350 nm, heating 1 °C/min; Tdiss: temperature of a 50% decrease

K50% [2]	Tdiss [3]	Substance	viscosity after subtraction of the buffer viscosity [1]
–	–	wild-type cardiac tropomyosin 1.1 isoform (Tpm1.1), recombinant, with Ala-Ser N-terminal extension	0.31 ± 0.01 mPa∙s
–	–	human E98K Tpm1.1 mutant (cardiac tropomyosin 1.1 with Glu98Lys), recombinant, with Ala-Ser N-terminal extension	0.28 ± 0.01 mPa∙s
2.57 µM	42.4 °C	human E98K Tpm1.1 mutant (cardiac tropomyosin 1.1 with Glu98Lys), recombinant, with Ala-Ser N-terminal extension (natural protein)	–
2.45 µM	45.5 °C	wild-type cardiac tropomyosin 1.1 isoform (Tpm1.1), recombinant, with Ala-Ser N-terminal extension (natural protein)	–
